In patent US20140295512A1, “Ketol-Acid Reductoisomerases With Improved Performance Properties” (CALIFORNIA INSTITUTE OF TECHNOLOGY, priority 2011, published 2014):
Where two headings read alike, the source gives them in different places.

Key:
[1] = KARI assay of purified S. exigua KARI and variants with NADPH (Examples 6-9); type: biochemical; settings: for U/mg NADPH (specific activity): cofactor NADPH; for Km: read-out: Km for cofactor NADPH
Method: (§1) S. exigua KARI activity or activities of its variants were assayed kinetically by monitoring the decrease in NADPH or NADH concentration by measuring the change in absorbance at 340 nm. An assay buffer was prepared containing 100 mM potassium phosphate pH 7.0, 1 mM DTT, 2.5 mM (S)-2-acetolactate, and 10 mM MgCl2 (final concentrations in the 1-mL assay, accounting for dilution with enzyme and cofactor). Fifty μL purified enzyme and 930 μL of the assay buffer were placed into a 1-mL cuvette. The reaction was initiated by addition of 20 μL NADPH or NADH (200 μM final concentration) for a general activity assay. Michaelis-Menten constants of the cofactors were determined with varying concentrations of NADPH (200-12 μM final) or NADH (200-6 μM final).

[2] = KARI assay of purified S. exigua KARI and variants with NADH (Examples 6-9); type: biochemical; settings: for U/mg NADH (specific activity): cofactor NADH; for Km: read-out: Km for cofactor NADH; for Ratio NADH/NADPH (U/mg): specific activity ratio
Method: as §1

| Molecule | kcat NADPH [1] | U/mg NADPH (specific activity) [1] | Km [1] | NADH KM value, fold increased versus wild-type [2] | kcat NADH [2] | kcat/Km ratio NADH/NADPH (cofactor specificity) [2] | U/mg NADH (specific activity) [2] | Km [2] | Ratio NADH/NADPH (U/mg) [2] | other results |
| --- | --- | --- | --- | --- | --- | --- | --- | --- | --- | --- |
| Se1_KARI^1AA10: S. exigua KARI variant S61C, S63D, I95T (protein, UniProt D0WGK0 1-342, looked up, variant S61C S63D I95T) Ketol-acid reductoisomerase …: MSVKTKEKEMAVTILYEQDVDPKVIQGLKVGIIGYGSQGHAHALNLMDSGVDVRVGLREGCSDWKTAEEAGLKVTDMDTAAEEADVIMVLVPDETQPKVYQEHIAAHLKAGNTLAFAHGFNIHYGYIVPPEDVNVIMCAPKGPGHIVRRQFTEGSGVPDLACVQQDATGNAWDIVLSYCWGVGGARSGIIKATFAEETEEDLFGEQAVLCGGLVELVKAGFETLTEAGYPPELAYFECYHEMKMIVDLMYESGIHFMNYSISNTAEYGEYYAGPKVINEQSREAMKEILKRIQDGSFAQEFVDDCNNGHKRLLEQREAINTHPIETTGAQIRSMFSWIKKED | 0.67 s⁻¹ | 0.27 U/mg | 367 µM | 1.3 fold | 0.8 s⁻¹ | 7.1 | 0.32 U/mg | 62 µM | 1.2 | NADPH KM value, fold increased versus wild-type/parent [1]: at least 367 fold; kcat with NADPH, fold decreased versus wild-type [1]: 1.2 fold; NADPH KM value, fold increased versus wild-type/parent ([1]; listed as Se1_KARI^1AA10-his6): > 367 fold; kcat with NADH, fold increase versus wild-type [2]: 2 fold; U/mg NADH (specific activity) ([2]; listed as 1AA10): 0.8 U/mg; kcat/Km ratio NADH/NADPH (cofactor specificity) ([2]; listed as Se1_KARI^1AA10-his6): 7 |
| Se1_NKR^S61DS63D: S. exigua KARI double aspartic acid variant S61D, S63D (protein, UniProt D0WGK0 1-342, looked up, variant S61D S63D, His6 tag, S. exigua KARI double aspartic acid variant S61D, S63D) Ketol-acid reductoisomerase …: MSVKTKEKEMAVTILYEQDVDPKVIQGLKVGIIGYGSQGHAHALNLMDSGVDVRVGLREGDSDWKTAEEAGLKVTDMDTAAEEADVIMVLVPDEIQPKVYQEHIAAHLKAGNTLAFAHGFNIHYGYIVPPEDVNVIMCAPKGPGHIVRRQFTEGSGVPDLACVQQDATGNAWDIVLSYCWGVGGARSGIIKATFAEETEEDLFGEQAVLCGGLVELVKAGFETLTEAGYPPELAYFECYHEMKMIVDLMYESGIHFMNYSISNTAEYGEYYAGPKVINEQSREAMKEILKRIQDGSFAQEFVDDCNNGHKRLLEQREAINTHPIETTGAQIRSMFSWIKKED | 0.1 ± 0.01 s⁻¹ | 0.042 ± 0.005 U/mg | 880 ± 500 µM | 2.5 fold | 1 ± 0.13 s⁻¹ | 78 | 0.4 ± 0.05 U/mg | 113 ± 4 µM | 9.5 | NADPH KM value, fold increased versus wild-type/parent [1]: more than 800 fold; U/mg NADPH (specific activity) ([1]; listed as Se1_NKR^DD-his6): 0.04 ± 0.005 U/mg; kcat NADPH ([1]; listed as S61D/S63D): 0.1 s⁻¹; kcat NADPH ([1]; listed as Se1_NKR^DD-his6): 0.1 s⁻¹; kcat in presence of NADH, fold higher than in presence of NADPH [2]: 10 fold; kcat NADH ([2]; listed as S61D/S63D): 1 s⁻¹; kcat NADH ([2]; listed as Se1_NKR^DD-his6): 1 s⁻¹; kcat/Km ratio NADH/NADPH (cofactor specificity) ([2]; listed as Se1_NKR^DD-his6): 76 |
| S63R: Slackia KARI variant with residue S63 mutated to R (protein, UniProt D0WGK0 1-342, looked up, variant S63R) Ketol-acid reductoisomerase …: MSVKTKEKEMAVTILYEQDVDPKVIQGLKVGIIGYGSQGHAHALNLMDSGVDVRVGLREGSSRWKTAEEAGLKVTDMDTAAEEADVIMVLVPDEIQPKVYQEHIAAHLKAGNTLAFAHGFNIHYGYIVPPEDVNVIMCAPKGPGHIVRRQFTEGSGVPDLACVQQDATGNAWDIVLSYCWGVGGARSGIIKATFAEETEEDLFGEQAVLCGGLVELVKAGFETLTEAGYPPELAYFECYHEMKMIVDLMYESGIHFMNYSISNTAEYGEYYAGPKVINEQSREAMKEILKRIQDGSFAQEFVDDCNNGHKRLLEQREAINTHPIETTGAQIRSMFSWIKKED |  |  |  |  |  |  |  |  | 3.7 |  |
| Se1_KARI^EE1-his6: S. exigua KARI variant L57R (protein, UniProt D0WGK0 1-342, looked up, variant L57R, His6 tag, S. exigua KARI variant L57R) Ketol-acid reductoisomerase …: MSVKTKEKEMAVTILYEQDVDPKVIQGLKVGIIGYGSQGHAHALNLMDSGVDVRVGRREGSSSWKTAEEAGLKVTDMDTAAEEADVIMVLVPDEIQPKVYQEHIAAHLKAGNTLAFAHGFNIHYGYIVPPEDVNVIMCAPKGPGHIVRRQFTEGSGVPDLACVQQDATGNAWDIVLSYCWGVGGARSGIIKATFAEETEEDLFGEQAVLCGGLVELVKAGFETLTEAGYPPELAYFECYHEMKMIVDLMYESGIHFMNYSISNTAEYGEYYAGPKVINEQSREAMKEILKRIQDGSFAQEFVDDCNNGHKRLLEQREAINTHPIETTGAQIRSMFSWIKKED |  | 0.04 U/mg |  |  |  |  | 0.06 U/mg |  | 1.58 |  |
| S63E: Slackia KARI variant with residue S63 mutated to E (protein, UniProt D0WGK0 1-342, looked up, variant S63E) Ketol-acid reductoisomerase …: MSVKTKEKEMAVTILYEQDVDPKVIQGLKVGIIGYGSQGHAHALNLMDSGVDVRVGLREGSSEWKTAEEAGLKVTDMDTAAEEADVIMVLVPDEIQPKVYQEHIAAHLKAGNTLAFAHGFNIHYGYIVPPEDVNVIMCAPKGPGHIVRRQFTEGSGVPDLACVQQDATGNAWDIVLSYCWGVGGARSGIIKATFAEETEEDLFGEQAVLCGGLVELVKAGFETLTEAGYPPELAYFECYHEMKMIVDLMYESGIHFMNYSISNTAEYGEYYAGPKVINEQSREAMKEILKRIQDGSFAQEFVDDCNNGHKRLLEQREAINTHPIETTGAQIRSMFSWIKKED |  |  |  |  |  |  |  |  | 9 |  |
| Se1_NKR^10C2-his6: S. exigua KARI variant R58P, S61C, S62A, S63D, I95T (protein, UniProt D0WGK0 1-342, looked up, variant R58P S61C S62A S63D I95T, His6 tag, S. exigua KARI variant R58P, S61C, S62A, S63D, I95T) Ketol-acid reductoisomerase …: MSVKTKEKEMAVTILYEQDVDPKVIQGLKVGIIGYGSQGHAHALNLMDSGVDVRVGLPEGCADWKTAEEAGLKVTDMDTAAEEADVIMVLVPDETQPKVYQEHIAAHLKAGNTLAFAHGFNIHYGYIVPPEDVNVIMCAPKGPGHIVRRQFTEGSGVPDLACVQQDATGNAWDIVLSYCWGVGGARSGIIKATFAEETEEDLFGEQAVLCGGLVELVKAGFETLTEAGYPPELAYFECYHEMKMIVDLMYESGIHFMNYSISNTAEYGEYYAGPKVINEQSREAMKEILKRIQDGSFAQEFVDDCNNGHKRLLEQREAINTHPIETTGAQIRSMFSWIKKED | 0.08 s⁻¹ | 0.032 U/mg | > 1000 µM |  | 0.27 s⁻¹ | 14 | 0.11 U/mg | 250 µM | 3.4 | NADPH-dependent activity (in words) [1]: virtually abolished |
| S631: Slackia KARI variant with residue S63 mutated (printed S631, probably S63I) (protein, UniProt D0WGK0 1-342, looked up, variant S63I) Ketol-acid reductoisomerase …: MSVKTKEKEMAVTILYEQDVDPKVIQGLKVGIIGYGSQGHAHALNLMDSGVDVRVGLREGSSIWKTAEEAGLKVTDMDTAAEEADVIMVLVPDEIQPKVYQEHIAAHLKAGNTLAFAHGFNIHYGYIVPPEDVNVIMCAPKGPGHIVRRQFTEGSGVPDLACVQQDATGNAWDIVLSYCWGVGGARSGIIKATFAEETEEDLFGEQAVLCGGLVELVKAGFETLTEAGYPPELAYFECYHEMKMIVDLMYESGIHFMNYSISNTAEYGEYYAGPKVINEQSREAMKEILKRIQDGSFAQEFVDDCNNGHKRLLEQREAINTHPIETTGAQIRSMFSWIKKED |  |  |  |  |  |  |  |  | 4 |  |
| Se1_NKR^2E8-his6: S. exigua KARI variant R58P, S61C, S62P, S63D, I95T (protein, UniProt D0WGK0 1-342, looked up, variant R58P S61C S62P S63D I95T, His6 tag, S. exigua KARI variant R58P, S61C, S62P, S63D, I95T) Ketol-acid reductoisomerase …: MSVKTKEKEMAVTILYEQDVDPKVIQGLKVGIIGYGSQGHAHALNLMDSGVDVRVGLPEGCPDWKTAEEAGLKVTDMDTAAEEADVIMVLVPDETQPKVYQEHIAAHLKAGNTLAFAHGFNIHYGYIVPPEDVNVIMCAPKGPGHIVRRQFTEGSGVPDLACVQQDATGNAWDIVLSYCWGVGGARSGIIKATFAEETEEDLFGEQAVLCGGLVELVKAGFETLTEAGYPPELAYFECYHEMKMIVDLMYESGIHFMNYSISNTAEYGEYYAGPKVINEQSREAMKEILKRIQDGSFAQEFVDDCNNGHKRLLEQREAINTHPIETTGAQIRSMFSWIKKED | 0.1 s⁻¹ | 0.044 U/mg | > 1000 µM | 2 fold | 0.4 s⁻¹ | 46 | 0.16 U/mg | 87 µM | 3.6 | NADPH-dependent activity (in words) [1]: virtually abolished |
| S63M: Slackia KARI variant with residue S63 mutated to M (protein, UniProt D0WGK0 1-342, looked up, variant S63M) Ketol-acid reductoisomerase …: MSVKTKEKEMAVTILYEQDVDPKVIQGLKVGIIGYGSQGHAHALNLMDSGVDVRVGLREGSSMWKTAEEAGLKVTDMDTAAEEADVIMVLVPDEIQPKVYQEHIAAHLKAGNTLAFAHGFNIHYGYIVPPEDVNVIMCAPKGPGHIVRRQFTEGSGVPDLACVQQDATGNAWDIVLSYCWGVGGARSGIIKATFAEETEEDLFGEQAVLCGGLVELVKAGFETLTEAGYPPELAYFECYHEMKMIVDLMYESGIHFMNYSISNTAEYGEYYAGPKVINEQSREAMKEILKRIQDGSFAQEFVDDCNNGHKRLLEQREAINTHPIETTGAQIRSMFSWIKKED |  |  |  |  |  |  |  |  | 4 |  |
| S63H: Slackia KARI variant with residue S63 mutated to H (protein, UniProt D0WGK0 1-342, looked up, variant S63H) Ketol-acid reductoisomerase …: MSVKTKEKEMAVTILYEQDVDPKVIQGLKVGIIGYGSQGHAHALNLMDSGVDVRVGLREGSSHWKTAEEAGLKVTDMDTAAEEADVIMVLVPDEIQPKVYQEHIAAHLKAGNTLAFAHGFNIHYGYIVPPEDVNVIMCAPKGPGHIVRRQFTEGSGVPDLACVQQDATGNAWDIVLSYCWGVGGARSGIIKATFAEETEEDLFGEQAVLCGGLVELVKAGFETLTEAGYPPELAYFECYHEMKMIVDLMYESGIHFMNYSISNTAEYGEYYAGPKVINEQSREAMKEILKRIQDGSFAQEFVDDCNNGHKRLLEQREAINTHPIETTGAQIRSMFSWIKKED |  |  |  |  |  |  |  |  | 4 |  |
